Measurements: patent US7972772B2, “KIF11 and method for diagnosing non-small cell lung cancer” (Oncotherapy Science, Inc., priority 2004, dated 2011)

T1: endogenous KIF11 (Homo sapiens, UniProt P52732)
T1 construct: endogenous in cells
T1 sequence (P52732 1-1056): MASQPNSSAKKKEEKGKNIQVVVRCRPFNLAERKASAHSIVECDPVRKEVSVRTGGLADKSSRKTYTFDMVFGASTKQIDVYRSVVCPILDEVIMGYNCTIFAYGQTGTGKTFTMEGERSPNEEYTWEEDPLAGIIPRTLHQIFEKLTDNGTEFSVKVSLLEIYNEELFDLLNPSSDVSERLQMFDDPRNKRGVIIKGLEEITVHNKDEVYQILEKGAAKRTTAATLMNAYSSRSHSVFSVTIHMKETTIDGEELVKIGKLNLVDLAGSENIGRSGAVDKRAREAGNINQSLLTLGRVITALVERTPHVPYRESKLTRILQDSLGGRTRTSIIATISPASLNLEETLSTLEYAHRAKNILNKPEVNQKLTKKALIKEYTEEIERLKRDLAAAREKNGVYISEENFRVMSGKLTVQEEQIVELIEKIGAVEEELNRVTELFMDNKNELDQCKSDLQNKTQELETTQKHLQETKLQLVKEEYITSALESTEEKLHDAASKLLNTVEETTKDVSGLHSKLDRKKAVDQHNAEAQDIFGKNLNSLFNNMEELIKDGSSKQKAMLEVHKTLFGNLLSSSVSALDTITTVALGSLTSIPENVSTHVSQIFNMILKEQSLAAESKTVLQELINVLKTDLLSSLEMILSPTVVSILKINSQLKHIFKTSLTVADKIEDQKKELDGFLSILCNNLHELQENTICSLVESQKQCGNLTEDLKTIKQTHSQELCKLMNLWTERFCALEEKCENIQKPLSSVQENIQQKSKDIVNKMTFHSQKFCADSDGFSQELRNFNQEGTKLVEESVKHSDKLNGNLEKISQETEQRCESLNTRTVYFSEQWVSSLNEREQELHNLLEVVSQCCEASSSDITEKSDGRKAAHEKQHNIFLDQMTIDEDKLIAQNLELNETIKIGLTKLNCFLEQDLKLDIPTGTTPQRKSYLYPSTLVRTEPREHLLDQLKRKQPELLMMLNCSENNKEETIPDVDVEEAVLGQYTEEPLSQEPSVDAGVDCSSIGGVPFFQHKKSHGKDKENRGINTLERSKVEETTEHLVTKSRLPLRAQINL

T2: KOC1-KIF11 complex (Homo sapiens, UniProt P52732)
T2 construct: endogenous in cells; host or cells: LC319 (KOC1DEL3) and A549 (KOC1DEL2)
T2 sequence (P52732 1-1056): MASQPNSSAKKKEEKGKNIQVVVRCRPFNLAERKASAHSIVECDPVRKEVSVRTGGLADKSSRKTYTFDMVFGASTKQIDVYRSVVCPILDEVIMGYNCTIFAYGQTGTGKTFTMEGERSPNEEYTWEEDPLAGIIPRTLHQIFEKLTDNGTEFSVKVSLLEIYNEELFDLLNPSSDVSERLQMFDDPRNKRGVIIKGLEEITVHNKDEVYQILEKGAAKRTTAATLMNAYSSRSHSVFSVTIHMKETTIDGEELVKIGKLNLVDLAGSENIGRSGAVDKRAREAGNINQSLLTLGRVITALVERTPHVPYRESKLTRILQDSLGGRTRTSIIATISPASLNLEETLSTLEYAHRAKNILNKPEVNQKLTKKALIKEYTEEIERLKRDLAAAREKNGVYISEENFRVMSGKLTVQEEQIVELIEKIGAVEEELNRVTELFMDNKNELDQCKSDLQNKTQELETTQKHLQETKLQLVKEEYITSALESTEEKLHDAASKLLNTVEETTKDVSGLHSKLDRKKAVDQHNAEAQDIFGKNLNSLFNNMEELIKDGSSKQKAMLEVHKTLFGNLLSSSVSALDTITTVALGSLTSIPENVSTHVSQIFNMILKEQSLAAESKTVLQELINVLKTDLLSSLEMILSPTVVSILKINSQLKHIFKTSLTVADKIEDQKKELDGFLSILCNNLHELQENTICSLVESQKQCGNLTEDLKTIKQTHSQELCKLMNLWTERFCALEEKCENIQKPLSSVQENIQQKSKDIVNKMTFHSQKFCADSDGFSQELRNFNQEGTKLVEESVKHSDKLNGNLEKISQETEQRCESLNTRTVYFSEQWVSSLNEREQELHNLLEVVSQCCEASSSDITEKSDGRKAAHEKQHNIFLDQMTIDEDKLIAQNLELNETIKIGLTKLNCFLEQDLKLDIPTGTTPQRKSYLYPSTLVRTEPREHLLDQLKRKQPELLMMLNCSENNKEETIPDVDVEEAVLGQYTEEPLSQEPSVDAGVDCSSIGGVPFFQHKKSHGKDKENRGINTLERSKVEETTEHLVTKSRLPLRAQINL


Key:
RAB35 mRNA = assay: Northwestern blot analysis with DIG-labeled RAB35 mRNA; format: binding; conditions: deletion mutants expressed in A549 cells, compared to full-length KOC1
Description: Immunoprecipitated extracts from cells transfected with the KOC1 deletion mutants (μM) were boiled in 2×SDS-sample buffer, electrophoresed through 10-20% gradient polyacrylamide gels (BIO-RAD) and transferred to a polyvinylidene difluoride membrane (Hybond-P). The membrane was then blocked for 1 hour at room temperature in blocking buffer (10 mM Tris-HCl (pH 7.8), 150 mM NaCl, 1 mg/ml yeast tRNA), and washed twice with 50 ml of 10 mM Tris-HCl (pH 7.8) for 5 min and incubated with DIG-labeled RNA probe in 5 ml of NWB buffer (10 mM Tris-HCl (pH 7.8), 1 mM EDTA, 50 mM NaCl, 0.02% Ficoll, 0.02% polyvinyl pyrrolidone, 0.02% BSA) for 2 hours at room temperature. The membrane was washed four times with NWB buffer and the RNA probe bound to the proteins was then detected using DIG nucleic acid detection kit (Roche) according to the supplier's protocol.
To determine the region of KOC1 that is required for binding to KOC1-associated mRNAs, we performed northwestern blot analysis using immunoprecipitated recombinant proteins of KOC1 deletion-mutants expressed in A549 cells (FIG. 4a) and DIG-labeled RAB35 mRNA, which is one of the KOC1 associated mRNAs.

endogenous KIF11 = target: T1, endogenous KIF11; assay: Immunoprecipitation of KOC1 deletion mutants with endogenous KIF11; format: binding
KOC1-KIF11 complex = target: T2, KOC1-KIF11 complex; assay: Immunoprecipitation of endogenous KOC1-KIF11 complex after dominant-negative transfection; format: cell-based
Description: We performed dominant-negative assays using the KOC1 deletion mutants to investigate the functional role of the KOC1-KIF11 complex in growth or survival of lung-cancer cells. The KOC1DEL3 and KOC1DEL2 construct (FIG. 3a; 10 μg), mock plasmid (10 μg), or plasmid mixtures of both constructs in the final dose of 10-μg DNA (KOC1DEL3 or KOC1DEL2 vs mock (μg), 7.5:2.5; 5:5; or 2.5:7.5, individually) were transfected into LC319 cells. The transfected cells were cultured for 7 days in the presence of G418 and their viability was measured by triplicate MTT assays.
To investigate the functional significance of KOC1-KIF11 interaction for growth or survival of lung-cancer cells, a deletion fragment of KOC1 containing the two RRMs, which was able to interact with KIF11 (KOC1DEL3; FIG. 3a, b) was examined for a dominant-negative function of suppressing direct interaction between endogenous KOC1 and KIF11. […] We also confirmed that transfection of construct containing only KH-domains control have no effect on proliferation. […]

LC319 cells = assay: Triplicate MTT assay of cell viability, LC319; format: cell-based, human; conditions: LC319, plasmid 2.5-10 μg vs mock, 7 days with G418; P<0.001 KOC1DEL3 vs mock
Description: Using 30 μl of Lipofectamine 2000 (Invitrogen), 10 μg of siRNA-expression vector were transfected into NSCLC cell lines, A549 and LC319, both endogenously over-expressing KOC1, KIF11, NMU, GHSR1b, NTSR1, RAB35, and FOXM1. […] The transfected cells were cultured for five days in the presence of appropriate concentrations of geneticin (G418), and then, cell numbers and viability were measured by Giemsa staining and triplicate MTT assays. The target sequences of the synthetic oligonucleotides for RNAi were as follows: control 1 (EGFP: enhanced green fluorescent protein (EGFP) gene, a mutant of Aequorea victoria EGFP), 5′-[…]-3′ (SEQ.ID.NO.29); control 2 (Luciferase: Photinus pyralis luciferase gene), 5′-[…]-3′ (SEQ.ID.NO.30); control 3 (Scramble: chloroplast Euglena gracilis gene coding for 5S and 16S rRNAs), 5′-[…]-3′ (SEQ. ID. NO.31);
We performed dominant-negative assays using the KOC1 deletion mutants to investigate the functional role of the KOC1-KIF11 complex in growth or survival of lung-cancer cells. […] The transfected cells were cultured for 7 days in the presence of G418 and their viability was measured by triplicate MTT assays.

A549 cells = assay: Triplicate MTT assay of cell viability, A549; format: cell-based, human; conditions: A549, plasmid dose-dependent vs mock; P=0.0006 KOC1DEL2 vs mock

interaction with endogenous KIF11 (immunoprecipitation) (endogenous KIF11; LC319 cells)	complex formation between endogenous KOC1 and KIF11 (KOC1-KIF11 complex; LC319 cells over-expressing the RRM domains)	interaction with endogenous KIF11 (immunoprecipitation) (endogenous KIF11; A549 cells)	complex formation between endogenous KOC1 and KIF11 (KOC1-KIF11 complex; A549 cells over-expressing KOC1DEL2)	Molecule	binding to RAB35 mRNA (northwestern blot) (RAB35 mRNA)	cell viability (MTT), dominant-negative assay (LC319 cells)	cell viability (MTT), dominant-negative assay (A549 cells)
detected interaction	reduce complex formation	–	–	KOC1DEL3: KOC1 deletion mutant 2×RRM without KH, positions 1-197 of SEQ ID NO:105 (protein, listed as Homo sapiens) MNKLYIGNLSENAAPSDLESIFKDAKIPVSGPFLVKTGYAFVDCPDESWALKAIEALSGKIELHGKPIEVEHSVPKRQRIRKLQIRNIPPHLQWEVLDSLLVQYGVVESCEQVNTDSETAVVNVTYSSKDQARQALDKLNGFQLENFTLKVAYIPDEMAAQQNPLQQPRGRRGLGQRGSSRQGSPGSVSKQKPCDLP	did not bind	significant dose-dependent decreases	–
–	–	detected interaction	reduced complex formation	KOC1DEL2: KOC1 deletion mutant 2×RRM+2×KH, positions 1 to 406 of SEQ ID NO:105 (protein, listed as Homo sapiens) MNKLYIGNLSENAAPSDLESIFKDAKIPVSGPFLVKTGYAFVDCPDESWALKAIEALSGKIELHGKPIEVEHSVPKRQRIRKLQIRNIPPHLQWEVLDSLLVQYGVVESCEQVNTDSETAVVNVTYSSKDQARQALDKLNGFQLENFTLKVAYIPDEMAAQQNPLQQPRGRRGLGQRGSSRQGSPGSVSKQKPCDLPLRLLVPTQFVGAIIGKEGATIRNITKQTQSKIDVHRKENAGAAEKSITILSTPEGTSAACKSILEIMHKEAQDIKFTEEIPLKILAHNNFVGRLIGKEGRNLKKIEQDTDTKITISPLQELTLYNPERTITVKGNVETCAKAEEEIMKKIRESYENDIASMNLQAHLIPGLNLNALGLFPPTSGMPPPTSGPPSAMTPPYPQFEQSETE	very weak binding affinities	–	significant dose-dependent decreases
